Results taken from paper PMC10866945 (2024).

Legend:
[1] = target: Spike protein NTD (Severe acute respiratory syndrome …, UniProt P0DTC2); test: ELISA
[2] = target: Spike protein RBD (Severe acute respiratory syndrome …, UniProt P0DTC2); test: ELISA

B1: Asialoglycoprotein receptor 1 (protein)
chain: MTKEYQDLQHLDNEESDHHQLRKGPPPPQPLLQRLCSGPRLLLLSLGLSLLLLVVVCVIGSQNSQLQEELRGLRETFSNFTASTEAQVKGLSTQGGNVGRKMKSLESQLEKQQKDLSEDHSSLLLHVKQFVSDLRSLSCQMAALQGNGSERTCCPVNWVEHERSCYWFSRSGKAWADADNYCRLEDAHLVVVTSWEEQKFVQHHIGPVNTWMGLHDQNGPWKWVDGTDYETGFKNWRPEQPDDWYGHGLGGGEDCAHFTDDGRWNDDVCQRPYRWVCETELDKASQEPPLL
- Kd [1]: 179 nM
- Kd [2]: 269 nM
